Paper PMC11228984

Assay: expression and purification from insect cells
Details: glycan lost; control: unmutated TREK2 construct

B1: TREK2: N144Q (protein)
parent chain: MFFLYTDFFLSLVAVPAAAPVCQPKSATNGQPPAPAPTPTPRLSISSRATVVARMEGTSQGGLQTVMKWKTVVAIFVVVVVYLVTGGLVFRALEQPFESSQKNTIALEKAEFLRDHVCVSPQELETLIQHALDADNAGVSPIGNSSNNSSHWDLGSAFFFAGTVITTIGYGNIAPSTEGGKIFCILYAIFGIPLFGFLLAGIGDQLGTIFGKSIARVEKVFRKKQVSQTKIRVISTILFILAGCIVFVTIPAVIFKYIEGWTALESIYFVVVTLTTVGFGDFVAGGNAGINYREWYKPLVWFWILVGLAYFAAVLSMIGDWLRVLSKKTKEEVGEIKAHAAEWKANVTAEFRETRRRLSVEIHDKLQRAATIRSMERRRLGLDQRAHSLDMLSPEKRSVFAALDTGRFKASSQESINNRPNNLRLKGPEQLNKHGQGASEDNIINKFGSTSRLTKRKNKDLKKTLPEDVQKIYKTFRNYSLDEEKKEEETEKMCNSDNSSTAMLTDCIQQHAELENGMIPTDTKDREPENNSLLEDRN
  expression_or_secretion: no change
